{
  "source": "paper PMC9491713",
  "binders": {"B1": {"name": "FLAG-FBXO42 protein purified from 293F cells, Q6P3S6 1-717 (natural protein)", "chain": "MASSSDSEDDSFMAVDQEETVLEGTMDQDEEPHPVLEAEETRHNRSMSELPEEVLEYILSFLSPYQEHKTAALVCKQWYRLIKGVAHQCYHGFMKAVQEGNIQWESRTYPYPGTPITQRFSHSACYYDANQSMYVFGGCTQSSCNAAFNDLWRLDLNSKEWIRPLASGSYPSPKAGATLVVYKDLLVLFGGWTRPSPYPLHQPERFFDEIHTYSPSKNWWNCIVTTHGPPPMAGHSSCVIDDKMIVFGGSLGSRQMSNDVWVLDLEQWAWSKPNISGPSPHPRGGQSQIVIDDATILILGGCGGPNALFKDAWLLHMHSGPWAWQPLKVENEEHGAPELWCHPACRVGQCVVVFSQAPSGRAPLSPSLNSRPSPISATPPALVPETREYRSQSPVRSMDEAPCVNGRWGTLRPRAQRQTPSGSREGSLSPARGDGSPILNGGSLSPGTAAVGGSSLDSPVQAISPSTPSAPEGYDLKIGLSLAPRRGSLPDQKDLRLGSIDLNWDLKPASSSNPMDGMDNRTVGGSMRHPPEQTNGVHTPPHVASALAGAVSPGALRRSLEAIKAMSSKGPSASAALSPPLGSSPGSPGSQSLSSGETVPIPRPGPAQGDGHSLPPIARRLGHHPPQSLNVGKPLYQSMNCKPMQMYVLDIKDTKEKGRVKWKVFNSSSVVGPPETSLHTVVQGRGELIIFGGLMDKKQNVKYYPKTNALYFVRAKR"}},
  "biological_target": "cSFB-RBPJ protein purified from 293F cells, Q06330",
  "test": "BLI",
  "conditions": "remark: other sources report otherwise",
  "data": [
    {"binder": "B1", "values": [
      {"measurement": "Kd", "value": 47, "unit": "nM"}
    ]}
  ]
}
